Results on two molecules are retold here after patent publication US20250136703A1 (PHANES THERAPEUTICS, published 2025).

The target of assay [1] is T1, recombinant human IL13Ra2 (ACROBiosystems; CAT #: IL2-H52H5) (human, UniProt Q14627 27-343).
T1 construct: Bought protein, coated on the ELISA plate; also called Interleukin-13 Receptor Subunit Alpha 2; immobilized recombinant IL13Ra2
T1 sequence (looked up): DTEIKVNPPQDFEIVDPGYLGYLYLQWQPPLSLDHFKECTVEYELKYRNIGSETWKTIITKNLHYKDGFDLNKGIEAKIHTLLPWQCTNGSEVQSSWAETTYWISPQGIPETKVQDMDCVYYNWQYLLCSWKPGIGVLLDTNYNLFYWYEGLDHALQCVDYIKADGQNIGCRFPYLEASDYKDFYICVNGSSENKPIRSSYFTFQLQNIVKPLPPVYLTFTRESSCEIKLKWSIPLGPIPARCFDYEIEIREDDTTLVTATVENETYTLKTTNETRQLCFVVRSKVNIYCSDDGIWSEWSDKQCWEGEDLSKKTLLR
As to the kind of experiment: ELISA, antigen coated on plate, anti-human IgG Fc-HRP detection. From the text: FIGS. 1A-1E show the binding of purified chimeric anti-IL13Ra2 mAbs (VH and VL regions of mouse mAb fused to the constant regions of human IgG1 heavy chain and kappa light chain, respectively) to immobilized recombinant IL13Ra2 in an ELISA assay. The antigen was human IL13Ra2 (ACROBiosystems; Newark, DE; CAT #: IL2-H52H5). L3A6-C refers to the chimeric version of L3A6, other antibodies following the same naming rule; Isotype control (IgG1) was included as a negative control antibody.
Purified chimeric mAbs were tested in an ELISA assay for their ability to bind to immobilized IL13Ra2. Recombinant human IL13Ra2 in Carbonate-Bicarbonate Buffer (Sigma; St. Louis, MO; Cat #: C3041-100CAP) was coated on a 96-well plate at room temperature for 1 hour. The plate is blocked by 5% BSA in TBST for 1 hour at room temperature. In each well of an individual plate, mAbs at various concentrations were incubated for 1 hour at room temperature. The plate was washed and the binding to IL13Ra2 was detected by a mouse anti-human IgG Fc antibody conjugated to horseradish peroxidase (Genescript; Piscataway, NJ; Cat #: A01854) with incubation for 1 hour at room temperature. Then after washing, the ELISA was developed using One-step Detection Solution (ThermoFisher Scientific; Waltham, MA; Cat #: 34028) and measured as the absorbance at 450 nm. […]
For orientation: ELISA stands for enzyme-linked immunosorbent assay.

For assay [2], the target named is T1, recombinant human IL13Ra2 …. Nature of the assay: ELISA, antigen coated on plate.

B1: L3A6-C (chimeric version of L3A6) (antibody, V domains shown)
VH: QVQLQQPGAELVKPGAPVKLSCKASGYTFTNYWMNWVKQRPGRGLEWIGRIDPSDTETHYNQEVKDKATLTVDKSSSTAYIQLSSLTSEDSAVYYCARGYGTYYGMDYWGQGTSVTVSS
VL: not shown
notes: Mouse VH and VL fused to the constant regions of human IgG1 heavy chain and kappa light chain
In the case of B1, in assay [1], the binding result is recorded as “binds”.

B2: L3A6-H1L1 (humanized mAb constructed with L3A6-H1 heavy chain and L3A6-L1 light chain) (antibody, V domains shown)
VH: QVTLRESGPALVKPTQTLTLTCTASGYTFTNYWMNWVRQPPGKALEWIGRIDPSDTETHYNQEVKDRATLSVDKSKNQAVLTMTNMDPVDTATYYCARGYGTYYGMDYWGQGSLVTVSS
VL: DIVLTQSPDSLSVSLGERATINCRASESVDNYGISFMNWFQQKPGQPPKLLIYAASNQGSGVPDRFSGSGSGTDFTLTISSLQAEDVAVYFCQQSKEVPWTFGGGTKVEIK
notes: Humanized VH and VL fused to the constant regions of human IgG1 heavy chain and kappa light chain
For the molecule B2, the binding result in assay [2] is recorded as “binds”.
